The text below walks through data of patent US8889620B2, “Pharmaceutical compositions comprising peptide antagonists of vascular endothelial growth factor” (Children's Medical Center Corporation, priority 1997, dated 2014).

In test [1] the target is T1, KDR/Flk-1 and VEGF165R on HUVEC (Homo sapiens, UniProt O14786).
T1 construct: HUVEC, which express both KDR/Flk-1 and VEGF165R; endogenous in cells; host or cells: HUVEC (ATCC)
The test can be described thus: Inhibition of 125I-VEGF165 binding to HUVEC. The note with it: 125I-VEGF165 5 ng/ml, increasing concentrations of fusion protein, FIG. 3A. The procedure:
(§1) FIGS. 3A-3C. Inhibition of ^125I-VEGF165 binding to HUVEC, MDA MB 231 cells, and PAE-KDR cells by GST-EX 7+8. ^125I-VEGF165 (5 ng,/ml) was bound to subconfluent cultures of HUVEC (3A), MDA MB 23 1 cells (3B), and PAE-KDR cells (3C) in 48-well dishes in the presence of increasing amounts of GST-Ex 7+8 (closed 20 square) or control GST protein (open squares). At the end of a 2-h incubation, the cells were washed and lysed, and the cell-associated radioactivity was determined with a γ-counter. The counts obtained are expressed as the percentage of the counts obtained in the presence of PBS without addition of GST or fusion protein.
FIGS. 5A and 5B. Localization of a core inhibitory region within exon 7. GST-Ex 7 fusion proteins containing full-length exon 7-encoded domain or truncations at the N-terminal and C-terminal ends were prepared as described in the Examples. ^125I-VEGF165 (5 ng/ml) was bound to subconfluent HUVEC cultures as described in FIG. 3, in the presence of increasing concentrations of the GST fusion proteins. At the end of a 2-h incubation, the cells were washed and lysed, and the cell-associated radioactivity was determined with a y counter. The counts obtained are expressed as percentage of the counts obtained in the presence of PBS without fusion protein B, the amino acid sequences of VEGF exon 7 derivatives. These derivatives were prepared to contain the first cysteine residue of exon 8 at their C termini to keep an even number of cysteine residue. FIG. 5B discloses SEQ ID NO: 19.
(§2) Binding and cross-linking experiments using 125I-VEGF165 and 125I-VEGF121 were performed at described previously (Gitay-Goren, et al., J. Biol. Chem., 287, 6003-6096 (1992), Soker, et al., J: Biol. Chem., 271,5761-5767 (1996)). VEGF binding was quantified by measuring the cell-associated radioactivity in a y-counter (Beckman, Gamma 5500). The counts represent the average of three walls. All experiments were repeated at least three times, and similar results were obtained. 125I-VEGF cross-linked complexes were resolved by 6% SDS-PAGE, and the gels were exposed to a phosphor screen and scanned after 24 h by a PhosphorImager (Molecular Dynamics). Subsequently, the gels were exposed to x-ray film.

The next test addresses T2, VEGF165R on 231 cells (Homo sapiens, UniProt O14786).
T2 construct: to 231 cells which express only VEGF165R; endogenous in cells; host or cells: MDA-MB-231 (ATCC)
As to the kind of experiment: Inhibition of 125I-VEGF165 binding to MDA-MB-231 (231) cells. The method, then: as §1, §2

In test [2] the target is T3, KDR/Flk-1 on PAE-KDR cells (Homo sapiens, UniProt P35968).
T3 construct: expressed in transfected cells; host or cells: porcine endothelial cells (PAE), gift of Dr. Claesson-Welsh
The test can be described thus: Inhibition of 125I-VEGF165 binding to PAE-KDR cells. Further details: species or system porcine endothelial cells transfected to express KDR/Flk-1. The note with it: 125I-VEGF165 5 ng/ml, FIG. 3C. The procedure:
as §1
Human umbilical vein endothelial cells (HUVEC) were obtained from the American Type Culture Collection (ATCC) (Rockville, Md.) and grown on gelatin-coated dishes in M-199 medium containing 20% fetal calf serum (FCS) and a mixture of glutamine, penicillin, and streptomycin (GPS). Basic FGF (1 nglml) was added to the culture medium every other day. Porcine endothelial cells (PAE), parental and transfected to express KDRElk-1 (PAE-KDR), were kindly provided by Dr. Lema Claesson-Welsh and grown in F12 medium containing 10% FCS and GPS as described (Waltenberger, et al., J. Biol. Chem., 269,26988-26995 (1994)). MDAMB-231 (231) cells were obtained from ATCC and grown in Bulbecoo's modified Eagle's medium containing 10% FCS and GPS.
as §2

Test [3] concerns VEGF165-induced proliferation of HUVEC. The test can be described thus: Inhibition of VEGF165-stimulated HUVEC proliferation. The format is cell-based, human. The method, then:
FIG. 6. GST-Ex 7+8 fusion protein inhibits VEGF165-stimulated HUVEC proliferation. HUVEC were cultured in 96-well dishes (5,000 cell/well) as in FIG. 2. Increasing concentrations of VEGF165 (open circles), together with 15 ug/ml GST-Ex 7+8 (closed circles) or 25 ug/ml GST (squares), were added to the medium, and the cells were incubated for 4 more days. DNA synthesis was measured in HUVEC as described in FIG. 2. The results represent the average counts of three wells, and the standard deviations were determined.
FIG. 7. GST-Ex 7+8 fusion protein inhibits VEGF165 and VEGF121-stimulated HUVEC proliferation. Increasing concentration of VEGF165 (circles) or VEGF121 (square) with 15 ug/ml GST-Ex 7+8 (closed symbols) or without GST-Ex 7+8 (open symbols) were added to HUVEC, and [*H]thymidine incorporation into the DNA was measured as in FIG. 2. The results represent the average counts of three wells and the standard deviations were determined.
HUVEC were seeded in gelatin-coated 96-well dishes at 4,000 cells/200 Ul/well in M-199 containing 5% FCS and GPS. After 24 H, VEGF isoforms and VEGF exon 7-GST fusion proteins were added to the wells at the same time. The cells were incubated for 72 h, and [3H]thymidine (1 pC/ml) was added for 10-12 h. The medium was aspirated, and the cells were trypsinized and harvested by an automatic cell harvester (TOMTEC) and loaded onto Filtermats (Wallac). The Filtermats were scanned and cpm were determined by a MicroBeta counter (Wallac). The results represent the average of samples assayed in triplicate, and the standard derivations were determined. All experiments were repeated at least three times and similar results were obtained.

Where no end group is shown, it is not given here.

T2 sequence (O14786 22-923): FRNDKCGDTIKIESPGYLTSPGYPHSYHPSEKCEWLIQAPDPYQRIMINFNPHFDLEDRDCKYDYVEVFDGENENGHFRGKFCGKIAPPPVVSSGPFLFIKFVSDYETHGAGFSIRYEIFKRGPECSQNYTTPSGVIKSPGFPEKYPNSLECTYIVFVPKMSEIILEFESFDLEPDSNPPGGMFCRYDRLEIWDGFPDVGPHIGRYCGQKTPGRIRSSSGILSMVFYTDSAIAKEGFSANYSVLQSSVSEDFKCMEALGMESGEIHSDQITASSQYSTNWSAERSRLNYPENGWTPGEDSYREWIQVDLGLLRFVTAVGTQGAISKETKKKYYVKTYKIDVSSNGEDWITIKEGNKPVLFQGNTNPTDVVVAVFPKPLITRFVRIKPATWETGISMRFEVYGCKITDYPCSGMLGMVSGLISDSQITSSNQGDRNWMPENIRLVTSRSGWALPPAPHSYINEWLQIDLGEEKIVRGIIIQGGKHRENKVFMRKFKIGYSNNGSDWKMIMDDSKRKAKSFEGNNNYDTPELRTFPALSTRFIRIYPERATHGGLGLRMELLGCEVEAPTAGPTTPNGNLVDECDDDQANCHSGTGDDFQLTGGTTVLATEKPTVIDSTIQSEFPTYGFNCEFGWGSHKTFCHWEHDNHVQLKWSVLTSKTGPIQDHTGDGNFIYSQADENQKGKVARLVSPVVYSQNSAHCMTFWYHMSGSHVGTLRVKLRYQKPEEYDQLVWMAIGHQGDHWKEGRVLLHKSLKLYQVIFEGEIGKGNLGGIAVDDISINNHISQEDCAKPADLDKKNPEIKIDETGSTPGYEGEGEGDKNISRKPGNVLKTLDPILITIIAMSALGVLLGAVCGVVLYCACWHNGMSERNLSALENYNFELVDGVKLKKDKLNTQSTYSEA
T3 sequence (P35968 20-1356): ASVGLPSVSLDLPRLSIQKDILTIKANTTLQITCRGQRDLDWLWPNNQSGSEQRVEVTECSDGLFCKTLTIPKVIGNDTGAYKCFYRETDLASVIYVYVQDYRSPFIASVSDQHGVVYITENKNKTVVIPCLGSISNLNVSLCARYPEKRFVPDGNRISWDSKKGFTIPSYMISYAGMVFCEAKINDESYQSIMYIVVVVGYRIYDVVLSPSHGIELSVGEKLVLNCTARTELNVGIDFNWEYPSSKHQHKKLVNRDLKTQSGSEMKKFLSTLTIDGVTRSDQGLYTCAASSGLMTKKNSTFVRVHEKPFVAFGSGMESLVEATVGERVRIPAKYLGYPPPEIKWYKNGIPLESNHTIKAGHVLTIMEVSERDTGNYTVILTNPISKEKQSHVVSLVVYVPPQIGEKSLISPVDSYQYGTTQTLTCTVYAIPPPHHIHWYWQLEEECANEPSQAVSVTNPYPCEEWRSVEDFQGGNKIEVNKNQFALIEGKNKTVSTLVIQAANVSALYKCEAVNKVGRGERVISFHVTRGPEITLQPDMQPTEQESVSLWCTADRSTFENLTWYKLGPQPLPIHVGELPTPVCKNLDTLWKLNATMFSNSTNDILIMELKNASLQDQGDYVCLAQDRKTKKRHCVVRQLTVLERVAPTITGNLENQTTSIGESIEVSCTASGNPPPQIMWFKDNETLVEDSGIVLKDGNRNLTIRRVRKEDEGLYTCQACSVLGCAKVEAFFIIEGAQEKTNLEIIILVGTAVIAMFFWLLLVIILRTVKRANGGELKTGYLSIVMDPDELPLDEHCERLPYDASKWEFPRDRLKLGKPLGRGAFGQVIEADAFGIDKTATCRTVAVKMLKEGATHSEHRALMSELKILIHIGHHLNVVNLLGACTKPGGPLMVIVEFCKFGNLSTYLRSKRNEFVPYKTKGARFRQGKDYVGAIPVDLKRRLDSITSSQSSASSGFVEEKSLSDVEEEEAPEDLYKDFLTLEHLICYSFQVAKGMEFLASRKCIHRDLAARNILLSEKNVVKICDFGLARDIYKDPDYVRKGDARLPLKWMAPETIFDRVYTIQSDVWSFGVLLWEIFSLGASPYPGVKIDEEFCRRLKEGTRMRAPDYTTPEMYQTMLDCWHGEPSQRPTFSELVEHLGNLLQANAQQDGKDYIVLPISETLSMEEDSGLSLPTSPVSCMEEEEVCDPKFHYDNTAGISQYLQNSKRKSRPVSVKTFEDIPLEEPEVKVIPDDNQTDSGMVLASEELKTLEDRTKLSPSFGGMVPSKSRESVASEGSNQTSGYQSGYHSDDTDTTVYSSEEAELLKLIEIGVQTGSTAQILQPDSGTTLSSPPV
T1 sequence (O14786 22-923): as the sequence (O14786 22-923) above

For “GST-Ex 7+8: GST fusion protein containing the peptide encoded by VEGF165 exons 7 and 8 (PCGPCSERRKHLFVQDPQTCKCSCKNTDSRCKARQLELNERTCRCDKPRR; cysteine pairing not given here; also: GST fusion protein, side of fusion not given here)”, the “inhibition of 125I-VEGF165 binding to HUVEC” value in test [1] is 85-95%. Also, the “inhibition of 125I-VEGF165 binding to 231 cells” value with VEGF165R on 231 cells (125I-VEGF165 5 ng/ml, increasing concentrations of fusion protein, FIG. 3B) is listed as 97-98%. The “VEGF165 binding to 231 breast cancer cells (in words)” value with VEGF165R on 231 cells (cells express VEGF165R and not KDR/Flk-1) is on record as “inhibits”. The “inhibition of 125I-VEGF165 binding to PAE-KDR cells (in words)” value in test [2] is “did not inhibit”. In test [3] (15 ug/ml fusion protein added with VEGF165, FIG. 6), the “reduction of VEGF165-induced HUVEC proliferation” value was “about 60%”. Also, the “inhibition of the level of VEGF165-induced mitogenicity” value in test [3] (FIG. 7, 15 ug/ml) is “about 2 fold”.
